Source: patent publication US20250011363A1, “OPTIMIZED SHORTENED PEPTIDE THAT BINDS TO ACETYLCHOLINE RECEPTOR, AND USE THEREOF” (SKINMED CO., LTD., priority 2021, published 2025)

B1: 5mer-233 (peptide)
peptide: RVYYK
B2: 5mer-234 (peptide)
peptide: RQYCR
B3: 5mer-213 (peptide)
peptide: RQYTK
B4: 5mer-236 (peptide)
peptide: KRRCK
B5: 5mer-220 (peptide)
peptide: KRILR
B6: 5mer-527 (peptide)
peptide: KSVQR
B7: 5mer-517 (peptide)
peptide: KGYTR
B8: 5mer-218 (peptide)
peptide: KVQYK
B9: 5mer-223 (peptide)
peptide: KQVRK
B10: 5mer-212 (peptide)
peptide: KQQYK
B11: 5mer-513 (peptide)
peptide: RWYYK
B12: 5mer-229 (peptide)
peptide: KGLTR
B13: 5mer-521 (peptide)
peptide: KRFRK
B14: 5mer-237 (peptide)
peptide: RGLRK
B15: 5mer-531 (peptide)
peptide: KRQSR
B16: 5mer-528 (peptide)
peptide: RVLLR
B17: 5mer-510 (peptide)
peptide: RQLSK
B18: 5mer-214 (peptide)
peptide: KQQCK
B19: 5mer-230 (peptide)
peptide: KVLCR
B20: 5mer-534 (peptide)
peptide: RRQLR
B21: 5mer-215 (peptide)
peptide: RQYRR
B22: 5mer-524 (peptide)
peptide: RRICR
B23: 5mer-511 (peptide)
peptide: KSLSR
B24: 5mer-221 (peptide)
peptide: RGRTR
B25: 5mer-217 (peptide)
peptide: KLQRR
B26: 5mer-536 (peptide)
peptide: RLITK
B27: 5mer-522 (peptide)
peptide: RLVYR
B28: 5mer-512 (peptide)
peptide: RLYLK
B29: 5mer-525 (peptide)
peptide: KQRYK
B30: 5mer-228 (peptide)
peptide: KRFLK
B31: 5mer-232 (peptide)
peptide: KWYTR
B32: 5mer-301 (peptide)
peptide: KWIRK
B33: 5mer-227 (peptide)
peptide: RRQQR
B34: 5mer-514 (peptide)
peptide: KLLLK
B35: 5mer-530 (peptide)
peptide: RWRRR
B36: 5mer-235 (peptide)
peptide: KGYSK
B37: 5mer-219 (peptide)
peptide: KQYTR
B38: 5mer-515 (peptide)
peptide: RGQRK
B39: 5mer-526 (peptide)
peptide: KQFSR
B40: 5mer-516 (peptide)
peptide: KWQTR
B41: 5mer-533 (peptide)
peptide: RLVYK
B42: 5mer-2 (peptide)
peptide: KRISR
B43: 5mer-225 (peptide)
peptide: KRQQK
B44: 5mer-224 (peptide)
peptide: RLQRR
B45: 5mer-518 (peptide)
peptide: RVYYR
B46: 5mer-231 (peptide)
peptide: KGLLK
B47: 5mer-216 (peptide)
peptide: KWVRR
B48: 5mer-211 (peptide)
peptide: RLYYR
B49: 5mer-529 (peptide)
peptide: RVQSR
B50: 5mer-520 (peptide)
peptide: RVLLK
B51: 5mer-532 (peptide)
peptide: KQICK
B52: 5mer-226 (peptide)
peptide: RRYTR
B53: 5mer-535 (peptide)
peptide: KSLLR
B54: 5mer-523 (peptide)
peptide: KQFQK
B55: 5mer-519 (peptide)
peptide: RLYSK
B56: 5mer-1 (peptide)
peptide: RVQCK
B57: 5mer-222 (peptide)
peptide: KWLLR

target: acetylcholine receptor; assay: SPR, AchR on chip, peptide 10 uM

Binding affinity (RU) | Binder
84 RU | B1
62 RU | B2
83 RU | B3
81 RU | B4
81 RU | B5
70 RU | B6
70 RU | B7
80 RU | B8
61 RU | B9
64 RU | B10
83 RU | B11
84 RU | B12
78 RU | B13
77 RU | B14
65 RU | B15
50 RU | B16
71 RU | B17
79 RU | B18
67 RU | B19

Binding affinity (RU) | Binder
50 RU | B20
79 RU | B21
83 RU | B22
56 RU | B23
58 RU | B24
72 RU | B25
78 RU | B26
78 RU | B27
70 RU | B28
51 RU | B29
53 RU | B30
71 RU | B31
64 RU | B32
84 RU | B33
52 RU | B34
80 RU | B35
70 RU | B36
55 RU | B37
56 RU | B38

Binding affinity (RU) | Binder
54 RU | B39
83 RU | B40
84 RU | B41
80 RU | B42
51 RU | B43
67 RU | B44
87 RU | B45
60 RU | B46
56 RU | B47
73 RU | B48
84 RU | B49
86 RU | B50
75 RU | B51
60 RU | B52
70 RU | B53
84 RU | B54
72 RU | B55
54 RU | B56
86 RU | B57
